This note sets out measurements from the Immune Epitope Database (IEDB).

In one experiment the target is HLA-A*68:02. In words: IEDB peptide-MHC binding, cellular MHC/competitive/fluorescence; ≥ and ≤ were set here for values at or beyond the usual limits of such assays.
The target of the next experiment is HLA-A*02:01. As to the kind of experiment: IEDB peptide-MHC binding, purified MHC/competitive/radioactivity; ≥ and ≤ were set here for values at or beyond the usual limits of such assays.
The next experiment deals with HLA-A*02:02. Described as above.
The target in another experiment is HLA-A*02:03. The experiment is described as above.
A further experiment has as its target HLA-A*02:06. The description is as above.
Where [1] appears, read: source organism: Vaccinia virus WR.
The mark [2] stands for this setting: source organism: Hepacivirus hominis.
The mark [3] stands for this setting: source organism: Mammarenavirus lassaense.

Consider KINEMVDEL, for which the IC50 (in general, the concentration needed to halve the response being measured) with HLA-A*68:02 (setting [1]) turned out to be 48400 nM; in the experiment with HLA-A*02:01 (setting [1]), 291 nM; with HLA-A*02:02 (setting [1]) it was 1.4 nM; with HLA-A*02:03 (setting [1]), 76 nM; with HLA-A*02:06 (setting [1]) it was 317 nM.
Consider ALLSCLTTPA, for which the IC50 was at least 70000 nM in the experiment with HLA-A*68:02 (setting [2]); 161 nM in the experiment with HLA-A*02:01 (setting [2]); 439 nM with HLA-A*02:02 (setting [2]); 211 nM with HLA-A*02:03 (setting [2]); 231 nM in the experiment with HLA-A*02:06 (setting [2]).
With GLRQQLEDI, the IC50 with HLA-A*68:02 (setting [1]) is at least 70000 nM; with HLA-A*02:01 (setting [1]) it was 125 nM; in the experiment with HLA-A*02:02 (setting [1]), 43 nM; in the experiment with HLA-A*02:03 (setting [1]), 4.7 nM; with HLA-A*02:06 (setting [1]), 4310 nM.
For VMWKCLIRL, the IC50 with HLA-A*68:02 (setting [2]) was found to be 7600 nM; with HLA-A*02:01 (setting [2]), 53 nM; with HLA-A*02:02 (setting [2]), 377 nM; with HLA-A*02:03 (setting [2]), 823 nM; in the experiment with HLA-A*02:06 (setting [2]), 947 nM.
Consider TLVPVLEKKV, for which the IC50 stood at 32000 nM with HLA-A*68:02 (setting [1]); 959 nM with HLA-A*02:01 (setting [1]); 112 nM in the experiment with HLA-A*02:02 (setting [1]); 100 nM in the experiment with HLA-A*02:03 (setting [1]); 498 nM in the experiment with HLA-A*02:06 (setting [1]).
The matching figures for NLLEQLIENI: 24700 nM, 326 nM, 836 nM, 1440 nM and 396 nM.
Take GLIHACMLV: the concentration for half-maximal inhibition (IC50) with HLA-A*68:02 (setting [2]) was determined as 37400 nM; in the experiment with HLA-A*02:01 (setting [2]) it was 1.3 nM; with HLA-A*02:02 (setting [2]), 1.5 nM; with HLA-A*02:03 (setting [2]), 1.9 nM; with HLA-A*02:06 (setting [2]), 12 nM.
As for LLVQYGAKI, the IC50 in the experiment with HLA-A*68:02 (setting [1]) turned out to be 6430 nM; with HLA-A*02:01 (setting [1]), 1770 nM; with HLA-A*02:02 (setting [1]) it was 206 nM; in the experiment with HLA-A*02:03 (setting [1]), 358 nM; with HLA-A*02:06 (setting [1]), 1140 nM.
The matching figures for GIIITVGMLI: 9200 nM, 945 nM, 3580 nM, 595 nM and 1130 nM.
For the sequence FLLALLSCLT, the concentration for half-maximal inhibition (IC50) is at least 70000 nM with HLA-A*68:02 (setting [2]); 92 nM in the experiment with HLA-A*02:01 (setting [2]); 86 nM with HLA-A*02:02 (setting [2]); 154 nM with HLA-A*02:03 (setting [2]); 592 nM with HLA-A*02:06 (setting [2]).
As for AAVTLNRIKI, the concentration for half-maximal inhibition (IC50) was found to be 5980 nM with HLA-A*68:02 (setting [1]); 2320 nM in the experiment with HLA-A*02:01 (setting [1]); 830 nM with HLA-A*02:02 (setting [1]); 3490 nM in the experiment with HLA-A*02:03 (setting [1]); 1920 nM with HLA-A*02:06 (setting [1]).
On to RLHGLEAFSL, for which the IC50 with HLA-A*68:02 (setting [2]) is 18500 nM; with HLA-A*02:01 (setting [2]) it was 224 nM; with HLA-A*02:02 (setting [2]), 35 nM; with HLA-A*02:03 (setting [2]), 602 nM; in the experiment with HLA-A*02:06 (setting [2]) it was 649 nM.
Take FLFLAWIMLL: the IC50 came out at 6180 nM with HLA-A*68:02 (source organism: SARS-CoV1); 80 nM with HLA-A*02:01 (source organism: SARS-CoV1); 19 nM in the experiment with HLA-A*02:02 (source organism: SARS-CoV1); 56 nM with HLA-A*02:03 (source organism: SARS-CoV1); 1010 nM in the experiment with HLA-A*02:06 (source organism: SARS-CoV1).
On to SIKMIYDLNA, for which the IC50 with HLA-A*68:02 (setting [1]) is 5810 nM; with HLA-A*02:01 (setting [1]) it was 1780 nM; with HLA-A*02:02 (setting [1]), 852 nM; with HLA-A*02:03 (setting [1]) it was 257 nM; with HLA-A*02:06 (setting [1]), 1030 nM.
For ALSGVFCGV, the IC50 worked out at 22500 nM in the experiment with HLA-A*68:02 (source organism: SARS-CoV1); 13 nM with HLA-A*02:01 (source organism: SARS-CoV1); 1.2 nM with HLA-A*02:02 (source organism: SARS-CoV1); 12 nM in the experiment with HLA-A*02:03 (source organism: SARS-CoV1); 50 nM with HLA-A*02:06 (source organism: SARS-CoV1).
As for AMIHKTYIDV, the IC50 with HLA-A*68:02 (setting [1]) stood at 21200 nM; with HLA-A*02:01 (setting [1]) it was 173 nM; in the experiment with HLA-A*02:02 (setting [1]), 335 nM; with HLA-A*02:03 (setting [1]), 27 nM; with HLA-A*02:06 (setting [1]) it was 206 nM.
For LNISGYNFSL, the IC50 was determined as 6000 nM with HLA-A*68:02 (setting [3]); 375 nM with HLA-A*02:01 (setting [3]); 16 nM with HLA-A*02:02 (setting [3]); 4550 nM in the experiment with HLA-A*02:03 (setting [3]); 421 nM in the experiment with HLA-A*02:06 (setting [3]).
As for YLLGDSDSVA, the IC50 came out at 10700 nM with HLA-A*68:02 (setting [1]); 20 nM with HLA-A*02:01 (setting [1]); 2 nM with HLA-A*02:02 (setting [1]); 23 nM with HLA-A*02:03 (setting [1]); 135 nM with HLA-A*02:06 (setting [1]).
The matching figures for KIVQLPKRGV: 62600 nM, 2240 nM, 4120 nM, 51 nM and 2250 nM.
On the same counts, the results for SLVYGIRCV are 51400 nM, 301 nM, 2940 nM, 3.8 nM and 168 nM.
As for ALEQYGIENT, the IC50 was determined as 21800 nM with HLA-A*68:02 (setting [1]); 1450 nM in the experiment with HLA-A*02:01 (setting [1]); 3150 nM with HLA-A*02:02 (setting [1]); 2160 nM in the experiment with HLA-A*02:03 (setting [1]); 1270 nM with HLA-A*02:06 (setting [1]).
The matching figures for IVSHLRASTT: 60600 nM, 896 nM, 139 nM, 111 nM and 173 nM.
The matching figures for RLFTRCAVI: 6640 nM, 209 nM, 94 nM, 249 nM and 2820 nM.
For FLWLLWPVTL, the IC50 with HLA-A*68:02 (source organism: SARS-CoV1) is 5220 nM; with HLA-A*02:01 (source organism: SARS-CoV1) it was 0.98 nM; with HLA-A*02:02 (source organism: SARS-CoV1), 2.7 nM; with HLA-A*02:03 (source organism: SARS-CoV1), 14 nM; with HLA-A*02:06 (source organism: SARS-CoV1), 28 nM.
Turning to YLVTRNADV, the IC50 with HLA-A*68:02 (setting [2]) was at least 70000 nM; with HLA-A*02:01 (setting [2]) it was 296 nM; in the experiment with HLA-A*02:02 (setting [2]), 55 nM; with HLA-A*02:03 (setting [2]), 62 nM; with HLA-A*02:06 (setting [2]), 4320 nM.
With LLWDYMCIS, the concentration for half-maximal inhibition (IC50) in the experiment with HLA-A*68:02 (setting [3]) was found to be 12700 nM; in the experiment with HLA-A*02:01 (setting [3]), 45 nM; in the experiment with HLA-A*02:02 (setting [3]), 147 nM; with HLA-A*02:03 (setting [3]) it was 597 nM; with HLA-A*02:06 (setting [3]) it was 408 nM.
FLPQIGGEAI: the IC50 in the experiment with HLA-A*68:02 (setting [1]) turned out to be 6540 nM; in the experiment with HLA-A*02:01 (setting [1]), 158 nM; with HLA-A*02:02 (setting [1]), 1 nM; with HLA-A*02:03 (setting [1]), 14 nM; with HLA-A*02:06 (setting [1]) it was 10 nM.
Regarding LLMEGLKLLS, the IC50 was determined as 8470 nM with HLA-A*68:02 (setting [3]); 12 nM with HLA-A*02:01 (setting [3]); 78 nM in the experiment with HLA-A*02:02 (setting [3]); 40 nM with HLA-A*02:03 (setting [3]); 1750 nM in the experiment with HLA-A*02:06 (setting [3]).
With SQMETDFLEL, the IC50 with HLA-A*68:02 (source organism: SARS-CoV1) came out at 20100 nM; with HLA-A*02:01 (source organism: SARS-CoV1), 92 nM; in the experiment with HLA-A*02:02 (source organism: SARS-CoV1), 227 nM; in the experiment with HLA-A*02:03 (source organism: SARS-CoV1), 597 nM; with HLA-A*02:06 (source organism: SARS-CoV1) it was 21 nM.
The matching figures for LLVAAGMEA: 19300 nM, 51 nM, 17 nM, 17 nM and 117 nM.
VLTSVDIETA: the IC50 with HLA-A*68:02 (setting [1]) worked out at 11400 nM; with HLA-A*02:01 (setting [1]), 747 nM; with HLA-A*02:02 (setting [1]), 62 nM; with HLA-A*02:03 (setting [1]), 421 nM; with HLA-A*02:06 (setting [1]) it was 1410 nM.
On the same counts, the results for GLDERFVEEL are 6180 nM, 331 nM, 93 nM, 1210 nM and 2520 nM.
As for TLLGCWSFVL, the IC50 with HLA-A*68:02 (setting [2]) was 26600 nM; with HLA-A*02:01 (setting [2]) it was 17 nM; with HLA-A*02:02 (setting [2]) it was 80 nM; with HLA-A*02:03 (setting [2]) it was 864 nM; with HLA-A*02:06 (setting [2]) it was 250 nM.
Consider VLEKKVCAIT, for which the IC50 with HLA-A*68:02 (setting [1]) is at least 70000 nM; with HLA-A*02:01 (setting [1]), 3510 nM; with HLA-A*02:02 (setting [1]), 590 nM; with HLA-A*02:03 (setting [1]), 1240 nM; with HLA-A*02:06 (setting [1]) it was 1680 nM.
Take LMWFIISIV: the IC50 in the experiment with HLA-A*68:02 (source organism: SARS-CoV1) stood at 18400 nM; with HLA-A*02:01 (source organism: SARS-CoV1), 9.8 nM; with HLA-A*02:02 (source organism: SARS-CoV1), 60 nM; with HLA-A*02:03 (source organism: SARS-CoV1), 7.2 nM; with HLA-A*02:06 (source organism: SARS-CoV1), 27 nM.
For ILGIIITVGM, the IC50 in the experiment with HLA-A*68:02 (setting [1]) is 38300 nM; in the experiment with HLA-A*02:01 (setting [1]) it was 1270 nM; in the experiment with HLA-A*02:02 (setting [1]), 288 nM; with HLA-A*02:03 (setting [1]) it was 265 nM; with HLA-A*02:06 (setting [1]) it was 4710 nM.
